The subject of experiment [1] is SMAD2/3. Kind of experiment: Analysis of phosphorylated SMAD2/3 in tonsil CD4 T cells. The format is cell-based, human. The settings on record: tonsil naïve CD4 T cells, activin A+Galunisertib. An excerpt: (§1) Fresh PBMCs and tonsil mononuclear cells were serum-starved over night in AIM-V medium. […] Following stimulation, the cells were fixed in BD Phosflow™ Fix Buffer I (BD Biosciences), then permeabilized using BD Phosflow™ Perm Buffer III (BD Biosciences) following manufacture's instruction.

The target of the next experiment is T1, ALK4 (Homo sapiens, UniProt P36896).
T1 construct: endogenous in cells; host or cells: primary human naive CD4+ T cells from PBMCs
T1 sequence (P36896 24-505): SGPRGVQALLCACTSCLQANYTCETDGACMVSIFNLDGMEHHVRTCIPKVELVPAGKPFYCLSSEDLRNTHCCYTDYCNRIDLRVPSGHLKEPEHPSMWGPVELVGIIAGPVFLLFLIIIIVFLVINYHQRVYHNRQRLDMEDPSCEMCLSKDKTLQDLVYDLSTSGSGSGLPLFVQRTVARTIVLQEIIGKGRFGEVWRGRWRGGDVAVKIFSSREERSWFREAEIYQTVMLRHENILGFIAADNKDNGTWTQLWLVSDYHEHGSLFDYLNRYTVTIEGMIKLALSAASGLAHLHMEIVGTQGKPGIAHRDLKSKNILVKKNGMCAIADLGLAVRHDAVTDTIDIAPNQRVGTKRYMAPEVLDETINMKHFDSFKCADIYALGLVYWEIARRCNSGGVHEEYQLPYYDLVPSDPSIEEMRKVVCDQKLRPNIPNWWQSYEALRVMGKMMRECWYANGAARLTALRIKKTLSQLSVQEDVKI
As to the kind of experiment: SMAD2/3 inhibition experiments (ALK4 inhibitors) in Tfh differentiation. The format is cell-based. To be noted: activin A+IL-12, 5 days, vs vehicle (DMSO).

In experiment [2] the test system is SMAD2/3. Kind of experiment: Analysis of phosphorylated SMAD2/3 in blood naïve CD4 T cells. The format is cell-based, human. To be noted: activin A + SB 431542 (10 μM).
Description: as §1

For experiment [3], the system named is human naïve CD4 T cells. Kind of experiment: Screening of secretomics recombinant proteins for Tfh marker induction. The format is cell-based. The settings on record: secretomics protein screen, anti-CD3/CD28 beads, 5 days, automated FACS. On the procedure: FIG. 1A-D: Inhibin beta A (INHBA) emerged from the screen as potent regulator of human Tfh differentiation. (A) Schematic of primary screen. Purified human naïve CD4 T cells from a leukapheresis donor were stimulated by anti-CD3/CD28 beads on 384 well plates on day 0. The GNF secretomics recombinant proteins were added at the beginning of the stimulation. Each secretomics protein was tested in duplicate. After 5 days of in vitro culture, cells were evaluated by automated FACS analysis for the expression of Tfh signature markers, including CXCR5 and PD-1. (B) Primary screen results. Relative enrichment of PD-1^+CXCR5^+ cell induction is reported as Z score for each recombinant protein. INHBA gene product is shown in red. (C) CXCR5 and PD-1 expression from repeat experiment in which INHBA gene product was tested again for its capacity to induce Tfh-like differentiation. (D) Confocal microscopy of INHBA expression in human tonsils. Tonsil sections were stained with anti-INHBA (red) anti-BCL6 (blue) and anti-CD3 (green) Abs. An overlay from one donor representative of six is shown on the left panel. […]
Naïve CD4^+ T cells were isolated from leukapheresis-derived mononuclear cells via CliniMACS negative selection (Miltenyi Biotec). […] Induction of CXCR5 and PD-1 was assessed after 5 days of in vitro culture using automated FACS acquisition via HTS on LSR Fortessa (BD Biosciences). For each 384 well plate, mean and standard deviation of PD-1^+CXCR5^+ cell frequency induced by each individual recombinant proteins was determined and used to calculate the Z score. Z scores of replicate plates were analyzed independently.
To discover novel regulators of human Tfh cell differentiation, we performed an unbiased high throughput screen of a human extracellular proteome library consisting of over 2000 human proteins predicted or known to be cytokines, chemokines, morphogens, costimulatory receptors, or single pass transmembrane molecules^19. […] Following 5 days, expression of the Tfh signature markers CXCR5 and PD-1 were measured on the cells by flow cytometry, in an automated fashion. […]

Experiment [4] has as its system human naïve CD4 T cells. As to the kind of experiment: In vitro Tfh differentiation, PD-1 and CXCR5 expression by FACS. The format is cell-based. The settings on record: for synergy with activin A on CXCR5 and PD-1 expression: IL-12 family cytokine added to activin A, serum-free conditions. The protocol:
(§2) For surface staining, primary-staining panels used for phenotypic analysis or for cell sorting known in the art were used. For the intranuclear staining: cells were treated with the FoxP3 Fixation/Permeabilization kit (eBioscience) and stained in Permeabilization buffer (eBioscience). For cytokine staining: day 3 or day 5 in vitro differentiated cells (specified in the main text or in figure legends) cells were stimulated for 5 hours at 37° C. with Phorbol 12-myristate 13-acetate (PMA, 25 ng/ml) and Ionomycin (1 μg/ml) in the presence of Brefeldin A (5 μg/ml). Cells were fixed with PBS 2% FBS, 1% PFA and permeabilized with PBS 2% FBS, 0.5% Saponin (from quillaja bark, Sigma-Aldrich). Samples were analyzed on a LSR Fortessa Cell Analyzer (BD, Bioscience). Flow cytometry data were analyzed with FlowJo (Tree Star). For cell sorting, cells were sorted using sorted using a FACS Aria (BD, Bioscience).
Unless differently specified, naïve CD4^+ T cells were enriched from PBMCs by magnetic bead negative selection with the Naïve CD4^+ T Cell Isolation Kit (Stem Cell Technologies). Purity (CD4^+CD45RA^+) was 90% or higher. Cells (7.5×10^4 cells/well) were activated by Dynabeads Human T-Activator CD3/CD28 (2 μl/well, Life Technologies) and cultured with recombinant human/mouse/rat activin A (50 ng/ml or 100 ng/ml), recombinant human IL-12 (5 ng/ml), recombinant human TGFβ (1 ng/ml), recombinant human IL-23 (10 ng/ml) or recombinant human IL-35 (10 ng/ml) in the presence of and recombinant human IL-7 (4 ng/ml) in AIM-V medium (Life Technologies). All cytokines were from R&D System and Peprotech. The 14 kDa mature human beta A chain of human activin A shares 100% amino acid sequence identity with bovine, feline, mouse, porcine, and rat beta A. Phenotype was quantified after 3 or 5 days, as specified in the main text of Figure legends. Similar results were obtained when using Treg-depleted FACS sorted naïve CD4 T cells, in which cells were sorted from total PBMCs by flow cytometry as CD19^−CD8^−CD14^−CD16^− CD4^+CD45RO^−CD25^− cells. For experiments quantifying supernatant CXCL13 concentration, cells were activated by plate-bound anti-human CD3 (5 μg/ml, BD) and ICOS-L (5 μg/ml, recombinant human B7-H2, R&D). CXCL13 concentrations were determined via human CXCL13 DuoSet ELISA (R&D) on supernatants harvested after 5 days of in vitro culture. For blocking experiments, cells were cultured with anti-activin A blocking mAb (5 μg/ml, clone 69403, R&D), anti-TGFβ mAb (100 μg/ml, clone 1D11.16.8, BioXcell), or equivalent concentration of mouse IgG1 isotype mAb (BioXcell). For blockade of IL-2, cells were cultured with anti-IL-2 blocking mAb (10 μg/ml, clone 5334, R&D) or mouse IgG1 isotype mAb (BioXcell).
(In general: Flow cytometry measures light scatter and fluorescence of single cells or particles in a stream.)

The test system of experiment [5] is human naïve CD4 T cells. Kind of experiment: Intracellular cytokine staining after PMA/Ionomycin restimulation. The format is cell-based. To be noted: cells cultured with IL-12, PMA/Ionomycin re-stimulation. The protocol:
as §2

In experiment [6] the test system is autologous memory B cells. Kind of experiment: T-B co-culture, B cell help. The format is cell-based, human. To be noted: T-B co-cultures.

Regarding `Cc1cccc(-c2nn3c(c2-c2ccnc4ccc(C(N)=O)cc24)CCC3)n1` [Galunisertib, reference compound], the “inhibition of activin A-induced SMAD2/3 phosphorylation” value with SMAD2/3 [1] was “abolished”. Besides, the “suppression of PD-1+CXCR5+ cell generation in response to activin A” value on ALK4 was “potent suppression”.

In the case of `NC(=O)c1ccc(-c2nc(-c3ccc4c(c3)OCO4)c(-c3ccccn3)[nH]2)cc1` [SB 431542, reference compound], the “reduction of activin A-mediated SMAD2/3 phosphorylation” value in the experiment with SMAD2/3 [2] is on record as “strong reduction”.

B1: product of the Inhibin beta A gene (INHBA): secreted recombinant protein from the secretomics collection; forms the cytokine activin A as a homodimer (protein, UniProt P08476 311-426, looked up)
Inhibin beta A chain: GLECDGKVNICCKKQFFVSFKDIGWNDWIIAPSGYHANYCEGECPSHIAGTSGSSLSFHSTVINHYRMRGHSPFANLKSCCVPTKLRPMSMLYYDDGQNIIKKDIQNMIVEECGCS
modifications: Inhibin beta A chain
With B1, the “induction of CXCR5 and PD-1 expression (PD-1+CXCR5+ cells)” value with human naïve CD4 T cells [3] is “most potent inducer of CXCR5 and PD-1”.

B2: IL-12: recombinant human cytokine (protein, UniProt P29459 23-219; P29460 23-328, looked up)
Interleukin-12 subunit alpha: RNLPVATPDPGMFPCLHHSQNLLRAVSNMLQKARQTLEFYPCTSEEIDHEDITKDKTSTVEACLPLELTKNESCLNSRETSFITNGSCLASRKTSFMMALCLSSIYEDLKMYQVEFKTMNAKLLMDPKRQIFLDQNMLAVIDELMQALNFNSETVPQKSSLEEPDFYKTKIKLCILLHAFRIRAVTIDRVMSYLNAS
Interleukin-12 subunit beta: IWELKKDVYVVELDWYPDAPGEMVVLTCDTPEEDGITWTLDQSSEVLGSGKTLTIQVKEFGDAGQYTCHKGGEVLSHSLLLLHKKEDGIWSTDILKDQKEPKNKTFLRCEAKNYSGRFTCWWLTTISTDLTFSVKSSRGSSDPQGVTCGAATLSAERVRGDNKEYEYSVECQEDSACPAAEESLPIEVMVDAVHKLKYENYTSSFFIRDIIKPDPPKNLQLKPLKNSRQVEVSWEYPDTWSTPHSYFSLTFCVQVQGKSKREKKDRVFTDKTSATVICRKNASISVRAQDRYYSSSWSEWASVPCS
With B2, the “synergy with activin A on CXCR5 and PD-1 expression” value in the experiment on human naïve CD4 T cells [4] is “enhanced”. Also, the IL-21 production entry in the experiment on human naïve CD4 T cells [5] is “capable of producing IL-21”. Besides, the “contribution to B cell helper activity of in vitro differentiated Tfh cells” value in experiment [6] was “driven entirely by IL-12”.

B3: IL-23: recombinant human cytokine of the IL-12 cytokine family (protein, UniProt Q9NPF7 20-189; P29460 23-328, looked up)
Interleukin-23 subunit alpha: RAVPGGSSPAWTQCQQLSQKLCTLAWSAHPLVGHMDLREEGDEETTNDVPHIQCGDGCDPQGLRDNSQFCLQRIHQGLIFYEKLLGSDIFTGEPSLLPDSPVGQLHASLLGLSQLLQPEGHHWETQQIPSLSPSQPWQRLLLRFKILRSLQAFVAVAARVFAHGAATLSP
Interleukin-12 subunit beta: IWELKKDVYVVELDWYPDAPGEMVVLTCDTPEEDGITWTLDQSSEVLGSGKTLTIQVKEFGDAGQYTCHKGGEVLSHSLLLLHKKEDGIWSTDILKDQKEPKNKTFLRCEAKNYSGRFTCWWLTTISTDLTFSVKSSRGSSDPQGVTCGAATLSAERVRGDNKEYEYSVECQEDSACPAAEESLPIEVMVDAVHKLKYENYTSSFFIRDIIKPDPPKNLQLKPLKNSRQVEVSWEYPDTWSTPHSYFSLTFCVQVQGKSKREKKDRVFTDKTSATVICRKNASISVRAQDRYYSSSWSEWASVPCS
Consider B3, for which the “synergy with TGFβ or activin A, induction of CXCR5+ or CXCR5+PD1+ cells” value in the experiment on human naïve CD4 T cells [4] (FIG. 15, interleukin combined with TGFβ or activin A) is recorded as “synergizes with TGFβ or activin A but less potently than IL-12”. The “synergy with activin A on CXCR5 and PD-1 expression” value in the experiment on human naïve CD4 T cells [4] is on record as “modest but detectable synergistic activity with activin A”.

The record behind these values is patent publication US20180111991A1, “MODULATORS OF ACTIVIN AND METHODS FOR MODULATING IMMUNE RESPONSES AND T FOLLICULAR HELPER CELLS” (LA JOLLA INSTITUTE FOR ALLERGY AND IMMUNOLOGY, priority 2014, published 2018).
